# From patent US11834499
# Changes are numbered by the printed parent chain.
# B1: HuAb307-3 (antibody, V domains shown)
# VH: EVQLLESGGGLVQPGGSLRLSCAASGFTFSSYTMSWVRQAPGKGLEWVATIIIGGSYTYYADSVKGRFTISRDNSKNTLYLQMNSLRAEDTAVYYCTRLVKGNAMDYWGQGTLVTVSS
# VL: DIVMTQSPDSLAVSLGERVTMNCKSSQSLLNSGNQKNYLSWYQQKPGQPPKLLFYWASTRESGVPDRFSGSGSGTDFTLTISSVQAEDVAVYYCQNDYSYPFTFGQGTKLEIK
# B2: 02-0358-h3 (antibody, V domains shown)
# VH: EVQLVESGGGLVQPGGSLRLSCAVSGFTFSSFGMHWVRQAPGKGLEWVAYISSGTTNIYYADSVKGRFTVSRDNAKNSLYLQMNSLRAEDTAVYYCVRSGYYGNSLDYWGQGTLVTVSS
# VL: B1 VL with L30F, K36R, S40T, F54I, D97V, S99I, F102L
# B3: 02-0307-h6 (antibody, V domains shown)
# VH: B1 VH
# VL: B1 VL with N31S
# B4: 02-0358-h5 (antibody, V domains shown)
# VH: B2 VH
# VL: B1 VL with L30F, N31S, K36R, S40T, F54I, D97V, S99I, F102L
# How the values were obtained:
# [1] = target: dogCLDN18 (Canis lupus familiaris); assay: flow cytometry; HEK293T dogCLDN18 moxGFP mass pop, 1ug; control HEK293T parental 1ug 5,328.00
# [2] = target: dogCLDN18 (Canis lupus familiaris); assay: flow cytometry; HEK293T dogCLDN18 moxGFP mass pop, 0.1ug; control HEK293T parental 0.1ug 3,276.00
# [3] = target: dogCLDN18 (Canis lupus familiaris); assay: flow cytometry; HEK293T dogCLDN18 moxGFP mass pop, 10ug; control HEK293T parental 10ug 12,759.00
# [4] = target: Claudin-18.1 (CLDN18.1) (human) (UniProt P56856); assay: flow cytometry; HEK293T human CLDN18.1 mGFP 2B14, 1ug; control HEK293T parental 1ug 5,328.00
# Sequence of Claudin-18.1 (CLDN18.1) (human) (P56856 whole entry): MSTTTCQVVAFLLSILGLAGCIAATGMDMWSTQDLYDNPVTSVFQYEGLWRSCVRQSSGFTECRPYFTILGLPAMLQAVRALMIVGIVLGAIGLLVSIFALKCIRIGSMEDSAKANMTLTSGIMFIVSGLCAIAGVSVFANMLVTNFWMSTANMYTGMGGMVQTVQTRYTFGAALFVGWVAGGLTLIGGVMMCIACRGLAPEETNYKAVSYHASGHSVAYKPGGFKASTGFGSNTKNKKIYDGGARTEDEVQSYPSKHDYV
# [5] = target: Claudin-18.1 (CLDN18.1) (human) (UniProt P56856); assay: flow cytometry; HEK293T human CLDN18.1 mGFP 2B14, 0.1ug; control HEK293T parental 0.1ug 3,276.00
# rat CLDN18 (rat) [6] = target: rat CLDN18 (rat) (UniProt Q5I0E5); assay: flow cytometry; HEK293T rat CLDN18 moxGFP Clone5, 0.1ug; control HEK293T parental 0.1ug 3,276.00
# Sequence of rat CLDN18 (rat) (Q5I0E5 whole entry): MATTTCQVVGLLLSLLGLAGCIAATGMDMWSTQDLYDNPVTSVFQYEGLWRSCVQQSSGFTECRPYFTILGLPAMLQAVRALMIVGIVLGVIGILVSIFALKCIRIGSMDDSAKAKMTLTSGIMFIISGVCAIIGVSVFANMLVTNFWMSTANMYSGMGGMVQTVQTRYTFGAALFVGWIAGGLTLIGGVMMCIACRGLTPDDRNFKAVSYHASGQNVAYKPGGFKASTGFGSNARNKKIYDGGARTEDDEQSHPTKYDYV
# rat CLDN18 (rat) [7] = target: rat CLDN18 (rat) (UniProt Q5I0E5); assay: flow cytometry; HEK293T rat CLDN18 moxGFP Clone5, 1ug; control HEK293T parental 1ug 5,328.00
# rat CLDN18 (rat) [8] = target: rat CLDN18 (rat) (UniProt Q5I0E5); assay: flow cytometry; HEK293T rat CLDN18 moxGFP Clone5, 10ug; control HEK293T parental 10ug 12,759.00
# [9] = target: Claudin-18.1 (CLDN18.1) (human) (UniProt P56856); assay: flow cytometry; HEK293T human CLDN18.1 mGFP 2B14, 10ug; control HEK293T parental 10ug 12,759.00
# [10] = target: Claudin-18.1 (CLDN18.1) (human) (UniProt P56856); assay: flow cytometry; HEK293T human CLDN18.1 mGFP 2B14, 10ug; control HEK293T parental 10ug 16,812.50
# rat CLDN18 (rat) [11] = target: rat CLDN18 (rat) (UniProt Q5I0E5); assay: flow cytometry; HEK293T rat CLDN18 moxGFP Clone5, 0.1ug; control HEK293T parental 0.1ug 3,268.00
# rat CLDN18 (rat) [12] = target: rat CLDN18 (rat) (UniProt Q5I0E5); assay: flow cytometry; HEK293T rat CLDN18 moxGFP Clone5, 1ug; control HEK293T parental 1ug 4,198.00
# [13] = target: dogCLDN18 (Canis lupus familiaris); assay: flow cytometry; HEK293T dogCLDN18 moxGFP mass pop, 10ug; control HEK293T parental 10ug 16,812.50
# [14] = target: Claudin-18.1 (CLDN18.1) (human) (UniProt P56856); assay: flow cytometry; HEK293T human CLDN18.1 mGFP 2B14, 1ug; control HEK293T parental 1ug 4,198.00
# [15] = target: dogCLDN18 (Canis lupus familiaris); assay: flow cytometry; HEK293T dogCLDN18 moxGFP mass pop, 1ug; control HEK293T parental 1ug 4,198.00
# rat CLDN18 (rat) [16] = target: rat CLDN18 (rat) (UniProt Q5I0E5); assay: flow cytometry; HEK293T rat CLDN18 moxGFP Clone5, 10ug; control HEK293T parental 10ug 16,812.50
# [17] = target: Claudin-18.1 (CLDN18.1) (human) (UniProt P56856); assay: flow cytometry; HEK293T human CLDN18.1 mGFP 2B14, 0.1ug; control HEK293T parental 0.1ug 3,268.00
# [18] = target: dogCLDN18 (Canis lupus familiaris); assay: flow cytometry; HEK293T dogCLDN18 moxGFP mass pop, 0.1ug; control HEK293T parental 0.1ug 3,268.00
# [19] = target: Claudin-18.1 (CLDN18.1) (human) (UniProt P56856); assay: flow cytometry; HEK293T human CLDN18.1 mGFP 2B14, 0.1ug; control HEK293T parental 0.1ug 2,726.00
# [20] = target: Claudin-18.1 (CLDN18.1) (human) (UniProt P56856); assay: flow cytometry; HEK293T human CLDN18.1 mGFP 2B14, 10ug; control HEK293T parental 10ug 22,390.50
# rat CLDN18 (rat) [21] = target: rat CLDN18 (rat) (UniProt Q5I0E5); assay: flow cytometry; HEK293T rat CLDN18 moxGFP Clone5, 10ug; control HEK293T parental 10ug 22,390.50
# rat CLDN18 (rat) [22] = target: rat CLDN18 (rat) (UniProt Q5I0E5); assay: flow cytometry; HEK293T rat CLDN18 moxGFP Clone5, 0.1ug; control HEK293T parental 0.1ug 2,726.00
# [23] = target: Claudin-18.1 (CLDN18.1) (human) (UniProt P56856); assay: flow cytometry; HEK293T human CLDN18.1 mGFP 2B14, 1ug; control HEK293T parental 1ug 9,051.00
# rat CLDN18 (rat) [24] = target: rat CLDN18 (rat) (UniProt Q5I0E5); assay: flow cytometry; HEK293T rat CLDN18 moxGFP Clone5, 1ug; control HEK293T parental 1ug 9,051.00
# [25] = target: dogCLDN18 (Canis lupus familiaris); assay: flow cytometry; HEK293T dogCLDN18 moxGFP mass pop, 0.1ug; control HEK293T parental 0.1ug 2,726.00
# [26] = target: dogCLDN18 (Canis lupus familiaris); assay: flow cytometry; HEK293T dogCLDN18 moxGFP mass pop, 1ug; control HEK293T parental 1ug 9,051.00
# [27] = target: dogCLDN18 (Canis lupus familiaris); assay: flow cytometry; HEK293T dogCLDN18 moxGFP mass pop, 10ug; control HEK293T parental 10ug 22,390.50
# [28] = target: dogCLDN18 (Canis lupus familiaris); assay: flow cytometry; HEK293T dogCLDN18 moxGFP mass pop, 1ug; control HEK293T parental 1ug 8,287.00
# [29] = target: Claudin-18.1 (CLDN18.1) (human) (UniProt P56856); assay: flow cytometry; HEK293T human CLDN18.1 mGFP 2B14, 0.1ug; control HEK293T parental 0.1ug 3,589.50
# [30] = target: Claudin-18.1 (CLDN18.1) (human) (UniProt P56856); assay: flow cytometry; HEK293T human CLDN18.1 mGFP 2B14, 10ug; control HEK293T parental 10ug 29,683.50
# [31] = target: dogCLDN18 (Canis lupus familiaris); assay: flow cytometry; HEK293T dogCLDN18 moxGFP mass pop, 10ug; control HEK293T parental 10ug 29,683.50
# rat CLDN18 (rat) [32] = target: rat CLDN18 (rat) (UniProt Q5I0E5); assay: flow cytometry; HEK293T rat CLDN18 moxGFP Clone5, 0.1ug; control HEK293T parental 0.1ug 3,589.50
# [33] = target: Claudin-18.1 (CLDN18.1) (human) (UniProt P56856); assay: flow cytometry; HEK293T human CLDN18.1 mGFP 2B14, 1ug; control HEK293T parental 1ug 8,287.00
# rat CLDN18 (rat) [34] = target: rat CLDN18 (rat) (UniProt Q5I0E5); assay: flow cytometry; HEK293T rat CLDN18 moxGFP Clone5, 10ug; control HEK293T parental 10ug 29,683.50
# [35] = target: dogCLDN18 (Canis lupus familiaris); assay: flow cytometry; HEK293T dogCLDN18 moxGFP mass pop, 0.1ug; control HEK293T parental 0.1ug 3,589.50
# rat CLDN18 (rat) [36] = target: rat CLDN18 (rat) (UniProt Q5I0E5); assay: flow cytometry; HEK293T rat CLDN18 moxGFP Clone5, 1ug; control HEK293T parental 1ug 8,287.00
binder,measurement,setting,value
B1,flow cytometry signal,[1],6030
same,flow cytometry signal,[2],3860
same,flow cytometry signal,[3],10200
same,flow cytometry signal,[4],54100
same,flow cytometry signal,[5],52100
same,flow cytometry signal,rat CLDN18 (rat) [6],3810
same,flow cytometry signal,rat CLDN18 (rat) [7],7320
same,flow cytometry signal,rat CLDN18 (rat) [8],13800
same,flow cytometry signal,[9],76900
B2,flow cytometry signal,[10],99100
same,flow cytometry signal,rat CLDN18 (rat) [11],3720
same,flow cytometry signal,rat CLDN18 (rat) [12],5070
same,flow cytometry signal,[13],11700
same,flow cytometry signal,[14],55200
same,flow cytometry signal,[15],4230
same,flow cytometry signal,rat CLDN18 (rat) [16],16700
same,flow cytometry signal,[17],50400
same,flow cytometry signal,[18],3700
B3,flow cytometry signal,[19],53100
same,flow cytometry signal,[20],156000
same,flow cytometry signal,rat CLDN18 (rat) [21],30700
same,flow cytometry signal,rat CLDN18 (rat) [22],3600
same,flow cytometry signal,[23],68800
same,flow cytometry signal,rat CLDN18 (rat) [24],10900
same,flow cytometry signal,[25],3690
same,flow cytometry signal,[26],9480
same,flow cytometry signal,[27],21800
B4,flow cytometry signal,[28],8760
same,flow cytometry signal,[29],52700
same,flow cytometry signal,[30],140000
same,flow cytometry signal,[31],20600
same,flow cytometry signal,rat CLDN18 (rat) [32],4580
same,flow cytometry signal,[33],64800
same,flow cytometry signal,rat CLDN18 (rat) [34],31200
same,flow cytometry signal,[35],4700
same,flow cytometry signal,rat CLDN18 (rat) [36],12400
